Experimental data as given in patent publication US8535680B2, “Anti-LPS factor from Parietaria judaica and methods of use thereof” (Consiglio Nazionale Delle Ricerche, priority 2008, dated 2013).
No end group written: not given here.

B1: QETCGTMVRALMPCLPFVQGKEKEPSKGCCSGAKRLDGETKTGPQRVHACECIQTAMKTYSDIDGKLVSEVPKHCGIVDSKLPPIDVNMDCKTVGVVPRQPQLPVSLRHGPVTGPSDPAHKARLERPQIRVPPPAPEKA (protein)
chain: QETCGTMVRALMPCLPFVQGKEKEPSKGCCSGAKRLDGETKTGPQRVHACECIQTAMKTYSDIDGKLVSEVPKHCGIVDSKLPPIDVNMDCKTVGVVPRQPQLPVSLRHGPVTGPSDPAHKARLERPQIRVPPPAPEKA
notes: Recombinant isoform of Parietaria judaica major allergen Parj1, 139 aa, containing the Par37 region

Key:
[1] = system: HeLa cells; assay: Cytotoxicity test with HeLa cells (MTS, CellTiter 96 AQueous One); assay type: cell-based, human; details: 0.5-5-50 μg/ml, 48 h; FIG. 5
Description: FIG. 5: Cytotoxicity test carried out with HeLa cells in culture. The assay describes the bioreduction of MTS (Owen's Reagent) produced by enzymes having dehydrogenase activity present in metabolically active cells.
The cytotoxity tests were carried out on HeLa cell lines growing in adhesion. Cell lines were maintained in RPMI 1640 culture medium containing 10% fetal calf serum and 0.1% antibiotics (penicillin, streptomycin and gentamycin); cultivated under humid 5% CO2 atmosphere at 37° C. To carry out the cytotoxicity test, the system CellTiter 96 AQueous One Solution Cell Proliferation Assay by Promega was used. In short, Hela cells were resuspended in a 100 μl volume of medium at a concentration of 10,000 cells/ml, then seeded on 96-well flat bottom plates and left to adhere in incubator at 37° C. for 3 h. Thereafter, Par37 peptide was added at increasing concentrations (0.5-5-50 μg/ml). The plate was incubated at 37° C. in 5% CO2 for further 48 h. Then 20 μl of CellTiter 96 AQueous One Solution reagent were added. Cells were thus incubated for 1 h at 37° C. in a CO2 incubator. The test was carried out in triplicate and compared to a row of blanks containing exclusively culture medium. After incubation, a spectrophotometer reading was carried out, measuring absorbance at 490 nm.

[2] = system: heparinised blood from Pj allergic subjects; assay: Histamine release from blood of Pj allergic patients; assay type: cell-based, human; details: 0.0001 to 1 μg/ml; Pj allergic subjects n=5; FIG. 9
Description: FIG. 9: Testing of histamine release from blood of Pj allergic patients. The antigens used were: rParj1 (line with squares, denominated Pj1) and the Par37 peptide (line with triangles). On the x-axis the amounts of protein used, and on the y-axis the percentage of histamine released with respect to the percentage of total histamine present in the patient's mastocytes are reported.
The histamine release assay was carried out by using heparinised blood from Pj allergic subjects (n=5) and an allergen concentration scale ranging from 0.0001 and 1 μg/ml. Release protocol was carried out as previously described (Colombo, P., et al., Identification of an immunodominant IgE epitope of the Parietaria Judaica major allergen. J. Immunol, 1998. 160(6): p. 2780-5). The data reported in FIG. 9 show the percentage of release obtained after stimulation with Parj1 allergen.

[3] = system: human erythrocytes; assay: Hemolysis test; assay type: cell-based; details: 0.0025-0.025-0.25-2.5-25 mM; 6% erythrocytes; reading at 415 nm; FIG. 6
Description: FIG. 6: Hemolysis test with human erythrocytes. The assay is capable of describing possible hemolysis induced after incubation with Par37 peptide at different concentrations. There were used 1×PBS as negative control and 0.1% Triton X100 as positive control. Optical Densities measured at […] indicate hemoglobin release in the medium following cell lysis.
For the hemolysis test, peripheral blood, collected from a donor, in heparin was used. A solution of 6% human erythrocytes was prepared. Erythrocyte concentration was controlled by reading the optical density of an hemolysate of the cell suspension thus made: 0.5 ml blood+7 ml distilled water should give a reading of 0.7 O.D. at the spectrophotometer at 541 nm. Erythrocytes were incubated in triplicate with an increasing concentration of Par37 (0.0025-0.025-0.25-2.5-25 mM) and with 1×PBS as negative control and a 0.1% solution of Triton X100 as positive control. Sample reading was carried out at 415 nm.

[4] = system: PBMC of non-allergic subjects; assay: ELISA of IFN-γ release from PBMC stimulated with the antigen itself; details: 1 and 10 μg/ml; healthy subjects n=4; FIG. 8
Description: Black bars indicate the values of the unstimulated sample (negative control), checkered bars the values of cells stimulated by rParj1.01, white bars the values obtained from cells stimulated by Par37 peptide.
(IFN-γ) cytokine production in supernatants after stimulation with the various antigens was evaluated by ELISA, using commercial kits and following the manufacturers' (GE healthcare, IFNg, Human, Biotrak) instructions.

[5] = system: LPS (Escherichia coli, serotype 026:B6); assay type: binding
[6] = system: PBMC from Pj allergic patients and non-allergic subjects; assay: PBMC proliferation (Cell Proliferation ELISA, BrdU); assay type: cell-based, human; details: 0.1, 1 and 10 μg/ml, 5 days; 3 Pj allergic patients and 3 non-allergic subjects; FIG. 7
Description: FIG. 7: Analysis of PBMC proliferation of 3 Pj allergic patients and 3 healthy subjects. Stimulation was conducted by adding to the culture medium rParj1 and Par37 synthetic peptide at a concentration of 0.1, 1 and 10 μg/ml. Numerical values on the y-axis indicate proliferation indexes with respect to the unstimulated sample. White histograms identify PBMC stimulated by Parj1, black histograms identify PBMC stimulated by Par37 peptide. Horizontal bars indicate significance values (values above the bar indicate a positive stimulation; values below the bar indicate absence of proliferation).
PBMC from Pj allergic patients (n=3) and non-allergic subjects (n=3) were purified by Ficoll gradient and resuspended in complete RPMI (10% AB serum). Cells were stimulated 5 days with 0.1, 1 and 10 μg/ml rParj1 and Par37. For the determination of stimulation indexes, cells were treated according to what described in the Cell Proliferation ELISA kit, BrdU (colorimetric) (Roche).

Molecule | toxic effect on HeLa cells (MTS bioreduction, absorbance 490 nm) [1] | histamine release (anaphylactic activity) [2] | hemolytic effect on human erythrocytes [3] | IFN-γ release from PBMC induced by the antigen itself [4] | LPS-binding capability ([5]; FIG. 3, native isoforms of Parj1) | lowest dilution with positive reaction to the endotoxin in the LAL test (endpoint) ([5]; eluate of HisTrap column loaded with 100 μg protein, then 100 μg LPS, LAL sensitivity 0.12 EU) | cell proliferation (lymphoproliferative activity) of PBMC [6]
LPVSLRHGPVTGPSDPAHKARLERPQIRVPPPAPEKA [Par37] | no toxic effect | no histamine release is observed | no hemolytic effect | – | – | – | –
B1 | – | – | – | impressive secretion of cytokine | has the LPS-binding capability | 1/256 | capable of inducing cell proliferation in all allergic patients
